Test results: patent EP1900816A2

How the values were obtained:
[1] = target: B7-1 on the surface of mouse cells (WEHI 231, undifferentiated ES cells) (mouse) (UniProt Q00609); test: flow cytometry, titration on WEHI 231 cells, which carry both B7-1 and B7-2
[2] = target: T1, B7-2 on the surface of WEHI 231 cells (mouse) (UniProt P42082); test: as above
T1 sequence (looked up): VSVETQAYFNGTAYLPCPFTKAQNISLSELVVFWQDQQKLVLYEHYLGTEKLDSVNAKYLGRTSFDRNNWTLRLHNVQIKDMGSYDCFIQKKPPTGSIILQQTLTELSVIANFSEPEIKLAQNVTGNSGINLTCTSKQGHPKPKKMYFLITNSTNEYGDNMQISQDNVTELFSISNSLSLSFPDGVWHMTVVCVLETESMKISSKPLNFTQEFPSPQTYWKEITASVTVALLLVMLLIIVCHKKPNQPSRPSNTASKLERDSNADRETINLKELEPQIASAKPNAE

[3] = target: ICOS-ligand (GL50) on the surface of mouse cells (WEHI 231, undifferentiated ES cells, splenocytes) (mouse) (UniProt Q9JHJ8); test: flow cytometry, titration on WEHI 231 cells
Sequence of UniProt Q9JHJ8 (Q9JHJ8 44-322): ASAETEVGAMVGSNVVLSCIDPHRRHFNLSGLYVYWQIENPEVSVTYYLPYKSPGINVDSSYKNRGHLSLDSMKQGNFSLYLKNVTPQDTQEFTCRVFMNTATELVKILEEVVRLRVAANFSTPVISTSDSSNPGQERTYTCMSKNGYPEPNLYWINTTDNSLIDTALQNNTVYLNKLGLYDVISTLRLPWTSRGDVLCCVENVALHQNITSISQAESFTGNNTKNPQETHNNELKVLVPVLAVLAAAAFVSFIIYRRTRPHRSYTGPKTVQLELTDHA

[4] = target: ICOS-ligand (GL50) on the surface of mouse cells (WEHI 231, undifferentiated ES cells, splenocytes) (mouse) (UniProt Q9JHJ8); test: flow cytometry, indirect staining of undifferentiated CCE ES cells
[5] = target: ICOS-ligand (GL50) on the surface of mouse cells (WEHI 231, undifferentiated ES cells, splenocytes) (mouse) (UniProt Q9JHJ8); test: two-colour flow cytometry, Balb/C splenocytes, cells stained by anti-CD3
[6] = target: ICOS-ligand (GL50) on the surface of mouse cells (WEHI 231, undifferentiated ES cells, splenocytes) (mouse) (UniProt Q9JHJ8); test: two-colour flow cytometry, Balb/C splenocytes, cells stained by anti-CD4
[7] = target: ICOS-ligand (GL50) on the surface of mouse cells (WEHI 231, undifferentiated ES cells, splenocytes) (mouse) (UniProt Q9JHJ8); test: two-colour flow cytometry, Balb/C splenocytes, cells stained by anti CD40
[8] = target: ICOS-ligand (GL50) on the surface of mouse cells (WEHI 231, undifferentiated ES cells, splenocytes) (mouse) (UniProt Q9JHJ8); test: two-colour flow cytometry, Balb/C splenocytes, cells stained by anti CD69
[9] = target: ICOS-ligand (GL50) on the surface of mouse cells (WEHI 231, undifferentiated ES cells, splenocytes) (mouse) (UniProt Q9JHJ8); test: two-colour flow cytometry, Balb/C splenocytes, cells stained by anti-CD19
[10] = target: ICOS-ligand (GL50) on the surface of mouse cells (WEHI 231, undifferentiated ES cells, splenocytes) (mouse) (UniProt Q9JHJ8); test: two-colour flow cytometry, Balb/C splenocytes, cells stained by anti-CD24
[11] = target: ICOS-ligand (GL50) on the surface of mouse cells (WEHI 231, undifferentiated ES cells, splenocytes) (mouse) (UniProt Q9JHJ8); test: two-colour flow cytometry, Balb/C splenocytes, cells stained by anti-CD8a
[12] = target: ICOS-ligand (GL50) on the surface of mouse cells (WEHI 231, undifferentiated ES cells, splenocytes) (mouse) (UniProt Q9JHJ8); test: two-colour flow cytometry, RAG1-/- splenocytes, cells stained by anti-CD4
[13] = target: ICOS-ligand (GL50) on the surface of mouse cells (WEHI 231, undifferentiated ES cells, splenocytes) (mouse) (UniProt Q9JHJ8); test: two-colour flow cytometry, Balb/C splenocytes, cells stained by anti-CD11B
[14] = target: ICOS-ligand (GL50) on the surface of mouse cells (WEHI 231, undifferentiated ES cells, splenocytes) (mouse) (UniProt Q9JHJ8); test: two-colour flow cytometry, Balb/C splenocytes, cells stained by anti-CD11C
[15] = target: ICOS-ligand (GL50) on the surface of mouse cells (WEHI 231, undifferentiated ES cells, splenocytes) (mouse) (UniProt Q9JHJ8); test: two-colour flow cytometry, RAG1-/- splenocytes, cells stained by anti CD69
[16] = target: ICOS-ligand (GL50) on the surface of mouse cells (WEHI 231, undifferentiated ES cells, splenocytes) (mouse) (UniProt Q9JHJ8); test: two-colour flow cytometry, RAG1-/- splenocytes, cells stained by anti-CD24
[17] = target: ICOS-ligand (GL50) on the surface of mouse cells (WEHI 231, undifferentiated ES cells, splenocytes) (mouse) (UniProt Q9JHJ8); test: two-colour flow cytometry, Balb/C splenocytes, cells stained by anti-pan NK
[18] = target: ICOS-ligand (GL50) on the surface of mouse cells (WEHI 231, undifferentiated ES cells, splenocytes) (mouse) (UniProt Q9JHJ8); test: two-colour flow cytometry, RAG1-/- splenocytes, cells stained by anti-CD11B
[19] = target: ICOS-ligand (GL50) on the surface of mouse cells (WEHI 231, undifferentiated ES cells, splenocytes) (mouse) (UniProt Q9JHJ8); test: two-colour flow cytometry, RAG1-/- splenocytes, cells stained by anti-CD11C
[20] = target: ICOS-ligand (GL50) on the surface of mouse cells (WEHI 231, undifferentiated ES cells, splenocytes) (mouse) (UniProt Q9JHJ8); test: two-colour flow cytometry, RAG1-/- splenocytes, cells stained by anti-pan NK
[21] = target: ICOS-ligand (GL50) on the surface of mouse cells (WEHI 231, undifferentiated ES cells, splenocytes) (mouse) (UniProt Q9JHJ8); test: two-colour flow cytometry, Balb/C splenocytes, cells stained by anti class II
[22] = target: ICOS-ligand (GL50) on the surface of mouse cells (WEHI 231, undifferentiated ES cells, splenocytes) (mouse) (UniProt Q9JHJ8); test: two-colour flow cytometry, RAG1-/- splenocytes, cells stained by anti class II
[23] = target: ICOS-ligand (GL50) on the surface of mouse cells (WEHI 231, undifferentiated ES cells, splenocytes) (mouse) (UniProt Q9JHJ8); test: two-colour flow cytometry, Balb/C splenocytes, cells stained by anti-CD45R/B220
[24] = target: ICOS-ligand (GL50) on the surface of mouse cells (WEHI 231, undifferentiated ES cells, splenocytes) (mouse) (UniProt Q9JHJ8); test: two-colour flow cytometry, RAG1-/- splenocytes, cells stained by anti-CD45R/B220

Sequence of UniProt Q00609 (Q00609 38-306): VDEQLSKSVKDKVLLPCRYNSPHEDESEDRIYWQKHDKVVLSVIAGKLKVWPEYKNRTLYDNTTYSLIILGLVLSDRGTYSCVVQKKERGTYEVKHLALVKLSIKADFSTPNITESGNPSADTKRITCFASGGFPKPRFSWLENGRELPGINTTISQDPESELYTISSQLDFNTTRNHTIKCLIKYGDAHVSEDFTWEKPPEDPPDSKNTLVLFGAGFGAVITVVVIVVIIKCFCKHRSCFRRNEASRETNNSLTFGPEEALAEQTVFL

## mCTLA4-mIgG2am fusion protein (from UniProt P09793 36-161) (Fc fusion)
[1]
  concentration at which staining was clearly detectable: 8 ng/mL
  fold binding affinity against mICOS-mIgG2am binding to GL50 on WEHI cells: > 100 fold
[2]
  concentration at which staining was clearly detectable: 8 ng/mL
  fold binding affinity against mICOS-mIgG2am binding to GL50 on WEHI cells: > 100 fold

B1: mICOS-mIgG2am fusion protein (Fc fusion)
chain: EINGSADHRMFSFHNGGVQISCKYPETVQQLKMRLFREREVLCELTKTKGSGNAVSIKNPMLCLYHLSNNSVSFFLNNPDSSQGSYYFCSLSIFDPPPFQERNLSGGYLHIYESQLCCQLKLEPRGPTIKPCPPCKCPAPNLEGGPSVFIFPPKIKDVLMISLSPIVTCVVVDVSEDDPDVQISWFVNNVEVHTAQTQTHREDYNSTLRVVSALPIQHQDWMSGKAFACAVNNKDLPAPIERTISKPKGSVRAPQVYVLPPPEEEMTKKQVTLTCMVTDFMPEDIYVEWTNNGKTELNYKNTEPVLDSDGSYFMYSKLRVEKKNWVERNSYSCSVVHEGLHNHHTTKSFSRTPGK
[3]
  concentration from which staining was minimally detectable: 1 µg/mL
[4]
  fluorescence shift over background: 0.5 log
[5]
  % ICOS-lg positive: 10%
[6]
  % ICOS-lg positive: 8%
[7]
  % ICOS-lg positive: 97%
[8]
  % ICOS-lg positive: 25%
[9]
  % ICOS-lg positive: 97%
[10]
  % ICOS-lg positive: 94%
[11]
  % ICOS-lg positive: 10%
[12]
  % ICOS-lg positive: 45%
[13]
  % ICOS-lg positive: 26%
[14]
  % ICOS-lg positive: 43%
[15]
  % ICOS-lg positive: 5%
[16]
  % ICOS-lg positive: 28%
[17]
  % ICOS-lg positive: 20%
[18]
  % ICOS-lg positive: 31%
[19]
  % ICOS-lg positive: 55%
[20]
  % ICOS-lg positive: 3%
[21]
  % ICOS-lg positive: 95%
[22]
  % ICOS-lg positive: 3%
[23]
  % ICOS-lg positive: 97%
[24]
  % ICOS-lg positive: 5%
